This data set deals with the molecule itself. In words: SDS-PAGE with immunoblot (denaturing); denatured samples (SDS loading buffer, 5 min 95 °C) of the extracts made for BN-PAGE.

Several values for one entry are separate records, joined by “and”; a condition that tells them apart may be missing. Equal values may be shown once.

B1: HIR2-HA (natural protein, Arabidopsis thaliana, UniProt Q9SRH6 1-285, looked up)
chain: MGNLFCCVLVKQSDVAVKERFGKFQKVLNPGLQFVPWVIGDYVAGTLTLRLQQLDVQCETKTKDNVFVTVVASIQYRVLADKASDAFYRLSNPTTQIKAYVFDVIRACVPKLNLDDVFEQKNEIAKSVEEELDKAMTAYGYEILQTLIIDIEPDQQVKRAMNEINAAARMRVAASEKAEAEKIIQIKRAEGEAESKYLSGLGIARQRQAIVDGLRDSVLGFAGNVPGTSAKDVLDMVMMTQYFDTMRDIGATSKSSAVFIPHGPGAVSDVAAQIRNGLLQANNAS
notes: HIR2, Arabidopsis thaliana; also called HA-tagged HIR2; source: Nicotiana benthamiana leaves, transient expression, total protein extract
In the case of B1, the stoichiometry N – broadly, a count of units in the complex or per binding partner – was 2 and 4 and 6.

For the origin of these results see publication PMC13534476, “The Arabidopsis SPFH protein HIR2 modulates receptor signaling and plasma membrane organization” (The EMBO Journal, 2026).
